Data taken from the supplement of paper PMC9170038.

Test system: MS2 coat protein
Test: apparent KD of MS2 coat protein; designed switch direction (-1 OFF switch, 1 ON switch): 1; higher = weaker reporter binding
Procedure, shortened: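 Each step of the titration lasted 0.8–1.5 h at the lowest concentration and 10–20 min at the highest. The protein, SNAP-549-labelled MS2 coat protein, went from 0.7 or 1.5 nM doubling to 3 µM over RNA switches transcribed on Illumina chips by stalled E. coli RNA polymerase. Normalised cluster fluorescence was curve-fitted, and the per-design median over clusters is given as apparent KD.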

[1] = input ligand: microRNA oligo, concentration not stated
[2] = Eterna round: R95, input ligand: FMN 200 uM
[3] = Eterna round: R95, input ligand: microRNA oligo, concentration not stated
[4] = Eterna round: R95, input ligand: none

Row | Sequence | apparent KD of MS2 coat protein (input ligand: FMN 200 uM) [µM] | apparent KD of MS2 coat protein [1] [µM] | apparent KD of MS2 coat protein (input ligand: none) [µM] | apparent KD of MS2 coat protein [2] [µM] | apparent KD of MS2 coat protein [3] [µM] | apparent KD of MS2 coat protein [4] [µM]
1 | AUUAUCAAUGCAGGAUAUGAUUAACAUGAGGAUCACCCAUGUGGUGUUGUGAGUAAGGAGAGUGAUCAGAAGGGCAUUUUUUUU [JMF's solution 26] (Eterna round: R96, puzzle: Same State NG 2) | 0.575 | 0.261 | 0.475 |  |  | 
2 | GCUAGAAUUAAAGCCAACAUGAGGAUCACCCAUGUAUGUUGGUAGGAUAUCGUUUGCUUUGCAAACGAGAAGGGCCAAACUAGC [JL SSNG3 1.07] (Eterna round: R96, puzzle: Same State NG 3) | 0.0647 | 0.143 | 0.111 |  |  | 
3 | CAUUGGACAUCCAGUGAGACAUGAGGAUCACCCAUGUAGGCGCAGGAUAUGCGGGUUCGGUGCUCGCAGAAGGGUGAAGAAAAC [Veenin] (Eterna round: R96, puzzle: Same State NG 3) | 0.129 | 0.0982 | 0.114 |  |  | 
4 | UGUACAUGAGGAUCACCCAUGUCUAGACAUGUUAAUAUAAUGUAGGAUAUAUAAUAUUUAAAUUAAUAGAAGGACAAUUUUUUU [JMF's solution 3] (Eterna round: R96, puzzle: Same State NG 3) | 0.147 | 0.115 | 0.234 |  |  | 
5 | GUGGUCAGACAUGAGGAUCACCCAUGUGGAAUAAAUAAGGGUUAGGAUAUCGAAUAUAGGAUAUACGAGAAGGGAUGGUUGGUG (Eterna round: R96, puzzle: Same State NG 3) | 0.135 | 0.0953 | 0.109 |  |  | 
6 | AUUGCUUUCGCAGGAUAUGAUGCGAAAAUUGCGUCAGAAGGGUGGAGUCUCUCAUUGCUAGAGGACAUGAGGAUCACCCAUGUC [SameState NG1 #85] (Eterna round: R96, puzzle: Same State NG 1) | 0.188 | 0.309 | 0.541 |  |  | 
7 | UCUUGGUUUUUGCUCGUUUUUUGUGUUGAACAUGAGGAUCACCCAUGUAUUGUACAAUCCGGUUUGAUGAUGGUCCA [JMF 47] (puzzle: Sensor for hsa-mir-208a) |  |  |  | 0.0817 | 0.0583 | 0.0923
8 | GUUACAUGAGGAUCACCCAUGUAUGUGUGGGAGUAAGUGUCUUAGGAUAUCUGUUAUCUAAUUUAAGAGAAGGAAGAUUGUUGU [JMF's solution 35] (Eterna round: R96, puzzle: Same State NG 3) | 0.162 | 0.0534 | 0.0872 |  |  | 
9 | UAGUACAUGCUUUUUGUCUGUCUUAGAUCACAUGAGGAUCACCCAUGUUUGGUGAAAGUUAUUUUGUUUAUGACUAU [JR_SHM208A_Sub060] (puzzle: Sensor for hsa-mir-208a) |  |  |  | 0.257 | 0.194 | 0.43
10 | AGCUAUCGCGUACGAUAGCUGAAGCAUGUACAUGAGGAUCACCCAUGUCAUGUACAAGCUUUUUGCUCGUCUUAUUG [JL-shm-2.26 JL mod] (puzzle: Sensor for hsa-mir-208a) |  |  |  | 0.341 | 0.0142 | 0.347
11 | UACAAUCUAUCUGAGGAUAUCAUGAUUGUAACAUGAGGAUCACCCAUGUGCAGGAAAACUGCAUAUGAGAAGGCAGAUAGAUUGU [salish99_ss2_r3_071] (puzzle: Same State 2) |  |  |  | 0.113 | 0.078 | 0.708
12 | UAGAGAGGAAGCGAGGAUAUCGUGUUAGGUACAUGAGGAUCACCCAUGUUGUAGGUAGAGGUAGGCGAGAAGGCGCAGGAGAGGG [JR_SS2_Sub093] (puzzle: Same State 2) |  |  |  | 0.0563 | 0.0471 | 0.0838
13 | AACAAUCUAUCUGAGGAUAUCAUGAAAUAAACAUGAGGAUCACCCAUGUGCAGUAAAACUGCAUAUGAGAAGGCAGAUAGAUUGA [salish99_ss2_r3_039] (puzzle: Same State 2) |  |  |  | 0.0933 | 1.85 | 1.82
14 | AACGGUCGACAAGGAUAUGGACGGACAGGUUUGCCUGUGCGGCUCACAUGAGGAUCACCCAUGUUCUAGAAGGUGUCACCAAGA [Tiinor] (Eterna round: R96, puzzle: Same State NG 2) | 0.0369 | 0.141 | 0.259 |  |  | 
15 | GGAAUAUGAUGUUACAUGAGGAUCACCCAUGUAGUAAUAACUAAGGAUAUCUGAGGAGGAGGAGAAGAGAAGGUAGGAUCAUAA [AK SSNG3-V2-10] (Eterna round: R96, puzzle: Same State NG 3) | 0.0238 | 0.0222 | 0.0332 |  |  | 
16 | GUGCUCGUGUGAGGAUAUGCCGCCGUUUCGGCUGCAGAAGGUGCUACGUUACAUGAGGAUCACCCAUGUCUCUGUUGUUUCGUG [salish99_SSNG1_r04_943] (Eterna round: R96, puzzle: Same State NG 1) |  | 0.0179 |  |  |  | 

Row | Sequence | apparent KD of MS2 coat protein (input ligand: FMN 200 uM) [µM] | apparent KD of MS2 coat protein [1] [µM] | apparent KD of MS2 coat protein (input ligand: none) [µM] | apparent KD of MS2 coat protein [2] [µM] | apparent KD of MS2 coat protein [3] [µM] | apparent KD of MS2 coat protein [4] [µM]
17 | CGUCGUUUGAUAGGAUAUCGCUUUCCAUGAGGAUCACCCAUGUUUACCACGCUGGUUUUUCUUUCCGAGAAGGAUUCUGAUGUU [salish99_SSNG02_r04_025] (Eterna round: R96, puzzle: Same State NG 2) | 0.169 | 0.143 | 0.153 |  |  | 
18 | UUGCGCUGUCGAGAGGAUAUGCGGUGUUGGACAUGAGGAUCACCCAUGUUAGCGAUUGCUUUACGGUAGAAGGCUCUUCAGCUGC [salish99_ss2_r3_098] (puzzle: Same State 2) |  |  |  |  | 0.0635 | 
19 | GGAGCCGGCCUAGGAUAUUUCAUGAAAAAACAUGAGGAUCACCCAUGUAGGCCAGAAGGCCUUGGGAAGAAGGAGGUCGGCUCC [Loop Effect - G24] (Eterna round: R96, puzzle: Same State NG 2) | 0.0321 | 0.151 | 0.472 |  |  | 
20 | GGAGCCGGCCUAGGAUAUUUCAUAAAAAUACAUGAGGAUCACCCAUGUAGGCCAGAAGGCCUUGGGAAGAAGGAGGUCGGCUCC [Loop Effect - U29] (Eterna round: R96, puzzle: Same State NG 2) | 0.0107 | 0.015 | 0.0173 |  |  | 
21 | AAAAUACAUGAGGAUCACCCAUGUAGAAACUACACAGGAUAUCGGACGGCUAUAACCGAACGAGAAGGGUGAACCC [Onorvea] (puzzle: Same State 1) |  |  |  | 0.26 | 0.354 | 0.362
22 | UGUUGUUAAUUAGGAUAUGGGCACAUGAGGAUCACCCAUGUAUUGUCGAUGCUAUGUGGACACGUCUAGAAGGAAUGGCUAACA [SameState NG2 #90] (Eterna round: R96, puzzle: Same State NG 2) | 0.0729 | 0.088 | 0.112 |  |  | 
23 | GCGGAGAGGUAAGGAUAUCCAUGGAAGACACAUGAGGAUCACCCAUGUGGGAGGGAAACCAGGAGGGAGAAGGUACCGGGACGC [AK SSNG2-V2-21] (Eterna round: R96, puzzle: Same State NG 2) | 0.0115 | 0.0104 | 0.0132 |  |  | 
24 | CUCCGGAUUGACAUGAGGAUCACCCAUGUGCCCUCAUUAAAGUAGGAUAUACCUCGCAGUCGGGAGUAGAAGGACUUUAUGAGU [Eternabot solution 36] (Eterna round: R96, puzzle: Same State NG 3) | 0.205 | 0.0911 | 0.213 |  |  | 
25 | AACAAUCUAUCUGAGGAUAUCAUGAUAUAAACAUGAGGAUCACCCAUGUGCAGGAAAACUGCAUAUGAGAAGGCAGAUAGAUUGA [salish99_ss2_r3_031] (puzzle: Same State 2) |  |  |  | 0.043 | 0.232 | 0.118
26 | UUAAUUAAUUAAUUAUACAUGAGGAUCACCCAUGUAAGUGAUCAGGAUAUCAGCUCGUUUAGAGCUGAGAAGGGAUACAUGAAU [SSNG3/12-A3] (Eterna round: R96, puzzle: Same State NG 3) | 0.0916 | 0.0859 | 0.143 |  |  | 
27 | AGCAUACAUGAGGAUCACCCAUGUCAACGUAGUCGAGGAUAUGGGCAGCCGUGAGGCGAACCAGAAGGCGAAUUGA [Mat - Same State 1 - Mod of JL - D3] (puzzle: Same State 1) |  |  |  | 0.0237 | 0.0346 | 0.0389
28 | AUCAAAACAAGUUGCAGUGUUCGUCUUUCACAUGAGGAUCACCCAUGUAAUAGCCCAGUGGAAGCGCUCGGGCUACC [Esgevexe] (puzzle: Sensor for hsa-mir-208a) |  |  |  | 0.0387 | 0.0256 | 0.0479
29 | AGCAAAAUAAGCAAGGAUAUGUAAUUUGGCACAUGAGGAUCACCCAUGUCAAUCCAUUUUUUUGAACAGAAGGUGCAUUUUUUUU [ak first solve] (puzzle: Same State 2) |  |  |  |  | 0.0364 | 
30 | ACGCAAAAUGGAGGAUAUGGAGCCUUAUUGGCUCCAGAAGGUCAAAACAUGAGGAUCACCCAUGUGCGGUGGUCUAAUGACCAC [Eli NG1ss - 46] (Eterna round: R96, puzzle: Same State NG 1) | 0.0415 | 0.109 | 0.172 |  |  | 
31 | GAGAGAGGGUGAGGAUAUUGAGUAAUAAUGAUACAAGAAGGCACAGACAUGAGGAUCACCCAUGUGGGAAUAAUCCAGAGAGAG [Parity 6 - Jieux - Same State NG 1] (Eterna round: R96, puzzle: Same State NG 1) | 0.262 | 0.153 | 0.289 |  |  | 
